Changes are numbered by the printed parent chain.
Experiments:
Experiment in all cases: pull-down
MBP-ORC1 = molecular target: T1, MBP-ORC1 (human, UniProt Q13415 1-861)
T1 sequence: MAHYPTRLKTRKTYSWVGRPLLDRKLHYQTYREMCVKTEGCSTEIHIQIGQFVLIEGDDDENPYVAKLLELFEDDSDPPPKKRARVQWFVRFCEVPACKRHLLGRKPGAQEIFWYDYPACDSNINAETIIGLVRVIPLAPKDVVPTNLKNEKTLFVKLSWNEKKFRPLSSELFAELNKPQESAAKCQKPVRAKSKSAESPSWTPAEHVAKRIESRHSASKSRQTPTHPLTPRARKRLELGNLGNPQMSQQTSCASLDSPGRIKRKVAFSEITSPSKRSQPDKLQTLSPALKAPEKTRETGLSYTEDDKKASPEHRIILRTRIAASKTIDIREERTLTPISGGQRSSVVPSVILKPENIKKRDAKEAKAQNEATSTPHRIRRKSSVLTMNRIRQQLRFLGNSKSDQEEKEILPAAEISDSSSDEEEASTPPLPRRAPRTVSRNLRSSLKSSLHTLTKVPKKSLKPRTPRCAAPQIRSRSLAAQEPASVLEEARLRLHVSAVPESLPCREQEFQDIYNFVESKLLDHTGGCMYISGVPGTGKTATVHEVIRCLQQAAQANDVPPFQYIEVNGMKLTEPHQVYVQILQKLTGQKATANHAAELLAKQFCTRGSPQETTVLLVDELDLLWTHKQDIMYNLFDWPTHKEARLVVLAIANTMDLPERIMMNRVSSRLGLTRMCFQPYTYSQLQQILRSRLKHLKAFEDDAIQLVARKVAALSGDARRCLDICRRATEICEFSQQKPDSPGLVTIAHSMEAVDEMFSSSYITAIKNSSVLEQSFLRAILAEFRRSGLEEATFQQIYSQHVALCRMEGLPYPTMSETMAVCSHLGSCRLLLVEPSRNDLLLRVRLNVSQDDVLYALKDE

MBP-ORC1 R105Q = molecular target: T2, MBP-ORC1 R105Q (human, UniProt Q13415 1-861, R105Q)
T2 sequence: T1 sequence with R105Q

MBP-ORC1 CDK123 = molecular target: T3, MBP-ORC1 CDK123 (human, UniProt Q13415 1-861, S258A | S273A | T375A)
T3 sequence: T1 sequence with S258A, S273A, T375A

binding result (MBP-ORC1): binds
binding result (MBP-ORC1 R105Q): binds
binding result (MBP-ORC1 CDK123): binds
B1: GST-CDC6 (natural protein)
chain: MPQTRSQAQATISFPKRKLSRALNKAKNSSDAKLEPTNVQTVTCSPRVKALPLSPRKRLGDDNLCNTPHLPPCSPPKQGKKENGPPHSHTLKGRRLVFDNQLTIKSPSKRELAKVHQNKILSSVRKSQEITTNSEQRCPLKKESACVRLFKQEGTCYQQAKLVLNTAVPDRLPAREREMDVIRNFLREHICGKKAGSLYLSGAPGTGKTACLSRILQDLKKELKGFKTIMLNCMSLRTAQAVFPAIAQEICQEEVSRPAGKDMMRKLEKHMTAEKGPMIVLVLDEMDQLDSKGQDVLYTLFEWPWLSNSHLVLIGIANTLDLTDRILPRLQAREKCKPQLLNFPPYTRNQIVTILQDRLNQVSRDQVLDNAAVQFCARKVSAVSGDVRKALDVCRRAIEIVESDVKSQTILKPLSECKSPSEPLIPKRVGLIHISQVISEVDGNRMTLSQEGAQDSFPLQQKILVCSLMLLIRQLKIKEVTLGKLYEAYSKVCRKQQVAAVDQSECLSLSGLLEARGILGLKRNKETRLTKVFFKIEEKEIEHALKDKALIGNILATGLP
